# Experimental data: IntAct's records for PubMed 16115628
# B1: 1-phosphatidylinositol 4,5-bisphosphate phosphodiesterase delta-1 (Homo sapiens), P51178 (parent)
# chain: MDSGRDFLTLHGLQDDEDLQALLKGSQLLKVKSSSWRRERFYKLQEDCKTIWQESRKVMRTPESQLFSIEDIQEVRMGHRTEGLEKFARDVPEDRCFSIVFKDQRNTLDLIAPSPADAQHWVLGLHKIIHHSGSMDQRQKLQHWIHSCLRKADKNKDNKMSFKELQNFLKELNIQVDDSYARKIFRECDHSQTDSLEDEEIEAFYKMLTQRVEIDRTFAEAAGSGETLSVDQLVTFLQHQQREEAAGPALALSLIERYEPSETAKAQRQMTKDGFLMYLLSADGSAFSLAHRRVYQDMGQPLSHYLVSSSHNTYLLEDQLAGPSSTEAYIRALCKGCRCLELDCWDGPNQEPIIYHGYTFTSKILFCDVLRAIRDYAFKASPYPVILSLENHCTLEQQRVMARHLHAILGPMLLNRPLDGVTNSLPSPEQLKGKILLKGKKLGGLLPPGGEGGPEATVVSDEDEAAEMEDEAVRSRVQHKPKEDKLRLAQELSDMVIYCKSVHFGGFSSPGTPGQAFYEMASFSENRALRLLQESGNGFVRHNVGHLSRIYPAGWRTDSSNYSPVEMWNGGCQIVALNFQTPGPEMDVYQGRFQDNGACGYVLKPAFLRDPNGTFNPRALAQGPWWARKRLNIRVISGQQLPKVNKNKNSIVDPKVTVEIHGVSRDVASRQTAVITNNGFNPWWDTEFAFEVVVPDLALIRFLVEDYDASSKNDFIGQSTIPLNSLKQGYRHVHLMSKNGDQHPSATLFVKISLQD
# Variants of: B1
# Settings: with imb1_human KPNB1, Q14974
# imb1_human KPNB1, Q14974, sequence (Q14974 whole entry): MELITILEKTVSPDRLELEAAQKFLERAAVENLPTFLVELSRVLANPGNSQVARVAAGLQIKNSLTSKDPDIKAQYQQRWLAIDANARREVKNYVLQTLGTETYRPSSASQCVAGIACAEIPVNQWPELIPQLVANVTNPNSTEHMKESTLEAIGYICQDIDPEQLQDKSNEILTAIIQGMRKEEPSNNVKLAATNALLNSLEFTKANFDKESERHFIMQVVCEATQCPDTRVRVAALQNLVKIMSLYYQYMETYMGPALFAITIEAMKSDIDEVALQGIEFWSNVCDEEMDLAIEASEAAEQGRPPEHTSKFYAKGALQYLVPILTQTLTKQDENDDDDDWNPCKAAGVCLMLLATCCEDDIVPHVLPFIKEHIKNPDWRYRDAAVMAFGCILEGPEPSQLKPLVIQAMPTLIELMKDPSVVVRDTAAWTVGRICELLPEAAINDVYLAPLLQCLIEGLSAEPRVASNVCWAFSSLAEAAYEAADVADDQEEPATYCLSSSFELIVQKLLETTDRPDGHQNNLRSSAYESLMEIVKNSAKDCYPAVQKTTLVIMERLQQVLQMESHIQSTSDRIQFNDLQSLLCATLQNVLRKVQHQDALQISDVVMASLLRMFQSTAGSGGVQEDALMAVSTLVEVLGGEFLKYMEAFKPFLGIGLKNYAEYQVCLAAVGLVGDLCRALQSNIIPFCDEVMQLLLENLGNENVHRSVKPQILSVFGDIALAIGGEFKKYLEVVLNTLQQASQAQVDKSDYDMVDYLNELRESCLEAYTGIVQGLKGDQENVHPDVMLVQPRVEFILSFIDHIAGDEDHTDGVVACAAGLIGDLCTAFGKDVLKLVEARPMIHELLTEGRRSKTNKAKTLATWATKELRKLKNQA
row,Variant,effect of a mutation on the interaction
1,E341A,decreasing interaction
